Assay results as given in patent publication US20250230254A1 (Janssen / Centocor, published 2025).

Assays:
[1] = target: T1, KLK2 (UniProt P20151 25-261, limits assumed); assay: cell-based or functional assay
[2] = target: T1, KLK2; assay: cell-based or functional assay; remark: listed apart in the source

T1 sequence (P20151 25-261 limits assumed): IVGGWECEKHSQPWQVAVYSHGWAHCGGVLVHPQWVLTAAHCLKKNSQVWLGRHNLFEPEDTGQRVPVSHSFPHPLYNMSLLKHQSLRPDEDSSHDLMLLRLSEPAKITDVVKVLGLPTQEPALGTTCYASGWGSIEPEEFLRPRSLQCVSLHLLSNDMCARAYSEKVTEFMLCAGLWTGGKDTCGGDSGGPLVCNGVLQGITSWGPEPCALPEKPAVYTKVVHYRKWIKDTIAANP

Binder | ADCC activity, percent cell killing of VCaP cells by PBMC [1] | ADCC killing EC50 (M), PBMC effector cells on VCaP cells, 48 hours [2]
KL2B870 (KL2B30 in hIgG1-RE) (antibody) heavy: not shown light: DIQMTQSPSFLSASVGDRVTITCRASQGISSYLAWYQQKPGKAPKFLIYAASTLQSGVPSRFSGSGSGTEFTLTISSLQPEDFATYYCQQLNSYPLTFGGGTKVEIKRTVAAPSVFIFPPSDEQLKSGTASVVCLLNNFYPREAKVQWKVDNALQSGNSQESVTEQDSKDSTYSLSSTLTLSKADYEKHKVYACEVTHQGLSSPVTKSFNRGEC | ~73% | 1e-09 M
KL2B872.CLF (antibody, human IgG1, kappa, low fucosylation of the Fc oligosaccharide (less than 10% fucosylation)) heavy: not shown light: DIQMTQSPSFLSASVGDRVTITCRASQGISSYLAWYQQKPGKAPKFLIYAASTLQSGVPSRFSGSGSGTEFTLTISSLQPEDFATYYCQQLNSYPLTFGGGTKVEIKRTVAAPSVFIFPPSDEQLKSGTASVVCLLNNFYPREAKVQWKVDNALQSGNSQESVTEQDSKDSTYSLSSTLTLSKADYEKHKVYACEVTHQGLSSPVTKSFNRGEC | ~85% | 4.12e-10 M
KL2B870.CLF (antibody, human IgG1, kappa, low fucosylation of the Fc oligosaccharide (less than 10% fucosylation)) heavy: not shown light: DIQMTQSPSFLSASVGDRVTITCRASQGISSYLAWYQQKPGKAPKFLIYAASTLQSGVPSRFSGSGSGTEFTLTISSLQPEDFATYYCQQLNSYPLTFGGGTKVEIKRTVAAPSVFIFPPSDEQLKSGTASVVCLLNNFYPREAKVQWKVDNALQSGNSQESVTEQDSKDSTYSLSSTLTLSKADYEKHKVYACEVTHQGLSSPVTKSFNRGEC | ~89% | 3.54e-10 M
